In the supplement of paper PMC7877785:
± gives the uncertainty stated by the source.

Assay: self-splicing fitness, log relative to wild type (ln ratio); higher = more splicing; Tetrahymena group I intron in knt gene, E. coli kanamycin selection, DiMSum; sequences stand for … in CUCUCU…GGAGGGAAAAGUUAUCAGGCAUGCACCUGGUAGCUAGUCUUUAAACCAAUAGAUUGCAUCGGUUUAAAAGGCAAGACCGUCAAAUUGCGGGAAAGGGGUCAACAGCCGUUCAGUACCAAGUCUCAGGGGAAACUUUGAGAUGGCCUUGCAAAGGGUAUGGUAAUAAGCUGACGGACAUGGUCCUAACCACGCAGCCAAGUCCUAAGUCAACAGAUCUUCUGUUGAUAUGGAUGCAGUUCACAGACUAAAUGUCGGUCGGGGAAGAUGUAUUCUUCUCAUAAGAUAUAGUCGGACCUCUCCUUAAUGGGAGCUAGCGGAUGAAGUGAUGCAACACUGGAGCCGCUGGGAACUAAUUUGUAUGCGAAAGUAUAUUGAUUAGUUUUGGAGUACUCGUGGUCG
Outline: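 Pooled colonies went to amplicon sequencing on an Illumina HiSeq 2500 after six replicate transformations. The plates were LB agar with 100 μg/mL carbenicillin, 50 μM IPTG and 0.2% rhamnose, with or without 25 μg/mL kanamycin, incubated overnight at 37°C or 30°C. The E. coli BL21(DE3) library had all eight P1ex-region intron nucleotides randomised, the intron placed in the knt kanamycin-resistance gene on pET-22b(+). DiMSum fitness is the error-weighted combination of replicate fold changes, kanamycin against none, normalised to wild type.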

Sequence	self-splicing fitness (ln) (30 °C)	self-splicing fitness (ln) (37 °C)
CGCAAGCAAUAUUACGGUGC	-4.9 ± 0.29	-2.53 ± 0.23
CGCAAGCAAUAUUACGUAAU	-3.89 ± 0.2	-2.14 ± 0.17
CGCAAGCAAUAUUACGUGAG	-2.69 ± 0.13	-2.15 ± 0.13
CGCAAGCAAUAUUACGUGCA	-0.273 ± 0.064	-0.135 ± 0.075
CGCAAGCAAUAUUACGUGUU	-3.48 ± 0.11	-2.9 ± 0.14
CGCAAGCAAUAUUACGUUUC	-2.92 ± 0.16	-2.21 ± 0.23
CGCCAGCAAUAUUACGAAAU	-4.66 ± 0.37	-2.69 ± 0.24
CGCCAGCAAUAUUACGAACC	-2.23 ± 0.22	-2.02 ± 0.43
CGCCAGCAAUAUUACGAAGA	-2.64 ± 0.36	-2.2 ± 0.24
CGCCAGCAAUAUUACGACCU	-3.15 ± 0.36	-2.15 ± 0.28
CGCCAGCAAUAUUACGAGCU	-3.06 ± 0.097	-1.59 ± 0.094
CGCCAGCAAUAUUACGAUGC	-3.51 ± 0.38	-1.75 ± 0.2
CGCCAGCAAUAUUACGAUGU	-2.9 ± 0.12	-1.25 ± 0.1
CGCCAGCAAUAUUACGCCGA	-2.87 ± 0.23	-1.65 ± 0.19
CGCCAGCAAUAUUACGCGAU	-3.87 ± 0.2	-2.22 ± 0.17
CGCCAGCAAUAUUACGCGGA	-2.91 ± 0.2	-1.99 ± 0.16
CGCCAGCAAUAUUACGCGGC	-4.11 ± 0.47	-3.03 ± 0.27
CGCCAGCAAUAUUACGCUGU	-3.38 ± 0.29	-2.69 ± 0.39
CGCCAGCAAUAUUACGCUUG	-2.95 ± 0.13	-1.88 ± 0.15
CGCCAGCAAUAUUACGGAGC	-3.06 ± 0.24	-2.82 ± 0.48
CGCCAGCAAUAUUACGGCAU	-1.25 ± 0.081	-0.458 ± 0.088
CGCCAGCAAUAUUACGGCCU	-0.959 ± 0.061	0.409 ± 0.072
CGCCAGCAAUAUUACGGCGC	-3 ± 0.17	-2.23 ± 0.22
CGCCAGCAAUAUUACGGCUC	-0.72 ± 0.22	-0.0823 ± 0.23
CGCCAGCAAUAUUACGGUCU	-0.989 ± 0.061	-0.324 ± 0.076

Sequence	self-splicing fitness (ln) (30 °C)	self-splicing fitness (ln) (37 °C)
CGCCAGCAAUAUUACGUACC	-3.78 ± 0.29	-2.74 ± 0.3
CGCCAGCAAUAUUACGUCAG	-0.444 ± 0.073	0.203 ± 0.095
CGCCAGCAAUAUUACGUCUA	–	-2.52 ± 0.3
CGCCAGCAAUAUUACGUGGA	-3.6 ± 0.2	-2 ± 0.15
CGCCAGCAAUAUUACGUGGC	-3.72 ± 0.2	-2.5 ± 0.2
CGCGAGCAAUAUUACGAAAU	–	-2.57 ± 0.27
CGCGAGCAAUAUUACGAAGU	-3.36 ± 0.21	-2.57 ± 0.31
CGCGAGCAAUAUUACGACGU	-2.39 ± 0.33	-1.08 ± 0.21
CGCGAGCAAUAUUACGAGGG	-3.3 ± 0.22	-2.71 ± 0.22
CGCGAGCAAUAUUACGAUCG	-2.08 ± 0.11	-2.66 ± 0.29
CGCGAGCAAUAUUACGCACG	–	-2.14 ± 0.46
CGCGAGCAAUAUUACGCUAC	–	-2.08 ± 0.25
CGCGAGCAAUAUUACGGCCA	–	-1.68 ± 0.39
CGCGAGCAAUAUUACGGGCC	-2.71 ± 0.27	–
CGCGAGCAAUAUUACGGGCG	-3.25 ± 0.24	-3.4 ± 0.42
CGCGAGCAAUAUUACGGGUG	-2.14 ± 0.077	-1.68 ± 0.1
CGCGAGCAAUAUUACGUAGU	-3.92 ± 0.18	-2.14 ± 0.16
CGCGAGCAAUAUUACGUCGC	-2.79 ± 0.24	-3.48 ± 0.37
CGCGAGCAAUAUUACGUCGG	-1.99 ± 0.086	-1.16 ± 0.093
CGCGAGCAAUAUUACGUUAC	-4.07 ± 0.28	-1.78 ± 0.33
CGCGAGCAAUAUUACGUUAU	-3.91 ± 0.21	-3.49 ± 0.3
CGCUAGCAAUAUUACGACCG	-1.12 ± 0.11	-0.347 ± 0.15
CGCUAGCAAUAUUACGAGGG	-2.59 ± 0.11	-2.44 ± 0.17
CGCUAGCAAUAUUACGAUGG	-0.85 ± 0.075	0.251 ± 0.083
CGCUAGCAAUAUUACGCAGU	-3.63 ± 0.2	-2.35 ± 0.2
